Article PMC4767259 (Journal of nuclear medicine : official publication, Society …, 2015)

How the values were obtained:
[1] = intraarterial (left femoral artery) intervention, insulin 0.34-0.38 IU/kg, rats
[2] = tested on: leg muscles (lateral gastrocnemius) and systemic muscles (spinotrapezius); assay: 18F-FDG uptake PET imaging of muscles, SUV time-activity curve slope analysis; assay type: in vivo, CD IGS rats; conditions: SF group: insulin 3.39-48.48 IU/kg into tail vein, n = 3, mean ± SD

Insulin
Adverse events [1]: No adverse events were observed
baseline of the 18F-FDG uptake SUVs [2]: 0.7547 ± 0.1208
